Ten molecules from PMC10397247 can be followed below.

Like-named read-outs stand apart in the source and are kept apart here.

In one assay the target is T1, 4H3365-AA.
T1 chain: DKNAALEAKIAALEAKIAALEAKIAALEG
Kind of assay: two-hybrid library CCmax.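 Also: natural log of median RNA to DNA barcode read ratio; higher means stronger binding.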

Another assay concerns the target T2, 4H355-AA.
T2 chain: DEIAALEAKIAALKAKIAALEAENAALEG
The assay is described as follows: two-hybrid library CCmax.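 Also: natural log of median RNA to DNA barcode read ratio; higher means stronger binding.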 The conditions noted are these: mean of both orientations.

The target in the next assay is T3, 4H3651-AA.
T3 chain: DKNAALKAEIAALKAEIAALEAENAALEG
Kind of assay: two-hybrid library CCmax.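 Also: natural log of median RNA to DNA barcode read ratio; higher means stronger binding.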 The conditions noted are these: mean of both orientations.

Another assay deals with T4, 4H3705-AA.
T4 chain: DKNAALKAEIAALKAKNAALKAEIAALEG
Kind of assay: two-hybrid library CCmax.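 Also: natural log of median RNA to DNA barcode read ratio; higher means stronger binding.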 The conditions noted are these: mean of both orientations.

The target of another assay is T5, 4H3782-AA.
T5 chain: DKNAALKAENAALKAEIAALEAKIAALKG
The assay is described as follows: two-hybrid library CCmax.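 Also: natural log of median RNA to DNA barcode read ratio; higher means stronger binding.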 The conditions noted are these: mean of both orientations.

In a further assay the target is T6, 4H465-AA.
T6 chain: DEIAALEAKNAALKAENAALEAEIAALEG
Kind of assay: two-hybrid library CCmax.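 Also: natural log of median RNA to DNA barcode read ratio; higher means stronger binding.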 To be noted: mean of both orientations.

For a further assay, the target named is T7, 4H486-AA.
T7 chain: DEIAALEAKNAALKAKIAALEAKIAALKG
The assay is described as follows: two-hybrid library CCmax. To be noted: mean of both orientations.

The next assay has as its target T8, 4H535-AA.
T8 chain: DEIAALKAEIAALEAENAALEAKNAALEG
Kind of assay: two-hybrid library CCmax. To be noted: mean of both orientations.

The next assay has as its target T9, 4H58-AA.
T9 chain: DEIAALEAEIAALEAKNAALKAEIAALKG
Kind of assay: two-hybrid library CCmax. To be noted: mean of both orientations.

The target of another assay is T10, 4H895-AA.
T10 chain: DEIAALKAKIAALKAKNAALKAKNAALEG
Kind of assay: two-hybrid library CCmax. To be noted: mean of both orientations.

The target of the next assay is T11, 4H_APH.
T11 chain: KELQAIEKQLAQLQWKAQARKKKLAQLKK
The assay is described as follows: two-hybrid library CCmax. The conditions noted are these: mean of both orientations.

A further assay deals with T12, 4H_BCR.
T12 chain: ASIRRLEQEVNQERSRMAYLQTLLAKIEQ
Kind of assay: two-hybrid library CCmax. To be noted: mean of both orientations.

For a further assay, the target named is 4H_GCN4. Kind of assay: two-hybrid library CCmax.
Sequence of 4H_GCN4 (chain, as listed by the source): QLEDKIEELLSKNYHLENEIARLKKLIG
The target in the next assay is GCN2_T. The assay is described as follows: two-hybrid library CCmax.
The next assay addresses T13, P3-AA.
T13 chain: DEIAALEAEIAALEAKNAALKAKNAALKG
Kind of assay: two-hybrid library CCmax.

A further assay addresses T14, P8bH1.
T14 chain: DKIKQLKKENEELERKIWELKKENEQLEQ
Kind of assay: two-hybrid library CCNG1.

In another assay the target is T15, P9bH1.
T15 chain: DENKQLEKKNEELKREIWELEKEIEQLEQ
Kind of assay: two-hybrid library CCNG1.

For the next assay, the target named is T16, 4H3462-bH.
T16 chain: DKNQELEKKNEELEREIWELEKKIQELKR
The assay is described as follows: two-hybrid library CCNG1.

For the next assay, the target named is T17, 4H3497-bH.
T17 chain: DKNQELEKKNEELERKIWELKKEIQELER
The assay is described as follows: two-hybrid library CCNG1.

For a further assay, the target named is T18, 4H3613-bH.
T18 chain: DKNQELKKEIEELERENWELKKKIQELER
Kind of assay: two-hybrid library CCNG1.

A further assay deals with T19, 4H3628-bH.
T19 chain: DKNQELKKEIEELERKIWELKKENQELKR
The assay is described as follows: two-hybrid library CCNG1.

A further assay has as its target T20, 4H3926-bH.
T20 chain: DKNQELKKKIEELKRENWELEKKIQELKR
The assay is described as follows: two-hybrid library CCNG1.

Another assay has as its target T21, 4H591-bH.
T21 chain: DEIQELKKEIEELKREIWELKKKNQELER
Kind of assay: two-hybrid library CCNG1.

A further assay concerns the target T22, 4H626-bH.
T22 chain: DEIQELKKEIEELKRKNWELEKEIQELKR
The assay is described as follows: two-hybrid library CCNG1.

A further assay addresses T23, 4H906-bH.
T23 chain: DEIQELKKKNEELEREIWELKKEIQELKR
The assay is described as follows: two-hybrid library CCNG1.

Another assay addresses T24, O2-bN.
T24 chain: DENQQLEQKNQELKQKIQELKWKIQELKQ
The assay is described as follows: two-hybrid library CCNG1.

For the next assay, the target named is T25, P7bH1.
T25 chain: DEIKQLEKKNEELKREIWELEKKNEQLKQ
The assay is described as follows: two-hybrid library CCNG1.

The next assay has as its target T26, 4H570-bN.
T26 chain: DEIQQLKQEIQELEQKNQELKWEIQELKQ
Kind of assay: two-hybrid library CCNG1.

The next assay addresses T27, 4H584-bN.
T27 chain: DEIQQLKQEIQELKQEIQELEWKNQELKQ
The assay is described as follows: two-hybrid library CCNG1.

A further assay deals with T28, 4H619-bN.
T28 chain: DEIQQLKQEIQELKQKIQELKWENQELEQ
The assay is described as follows: two-hybrid library CCNG1.

Another assay concerns the target T29, 4H850-bN.
T29 chain: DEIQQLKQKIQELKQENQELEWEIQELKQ
The assay is described as follows: two-hybrid library CCNG1.

Another assay addresses T30, 4H906-bN.
T30 chain: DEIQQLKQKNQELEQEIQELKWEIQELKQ
Kind of assay: two-hybrid library CCNG1.

A further assay addresses T31, P7A.
T31 chain: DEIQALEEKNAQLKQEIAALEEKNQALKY
The assay is described as follows: two-hybrid library CCNG1.

The next assay addresses T32, 4H3020-AA.
T32 chain: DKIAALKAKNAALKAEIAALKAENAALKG
The assay is described as follows: two-hybrid library CCmax.

The target in the next assay is T33, P8A.
T33 chain: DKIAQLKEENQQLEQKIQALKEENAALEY
The assay is described as follows: two-hybrid library CCNG1.

A further assay addresses T34, P9A.
T34 chain: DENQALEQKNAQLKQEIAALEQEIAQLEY
Kind of assay: two-hybrid library CCNG1.

Another assay deals with T35, P6bH1.
T35 chain: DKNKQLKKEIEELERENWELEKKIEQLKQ
Kind of assay: two-hybrid library CCNG1.

For another assay, the target named is T36, O4-bN.
T36 chain: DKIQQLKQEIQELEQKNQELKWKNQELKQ
Kind of assay: two-hybrid library CCNG1.

The next assay deals with T37, O5-bN.
T37 chain: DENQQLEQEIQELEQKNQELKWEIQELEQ
The assay is described as follows: two-hybrid library CCNG1.

In another assay the target is T38, O6-bN.
T38 chain: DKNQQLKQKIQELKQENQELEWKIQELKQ
Kind of assay: two-hybrid library CCNG1.

A further assay concerns the target T39, O7-bN.
T39 chain: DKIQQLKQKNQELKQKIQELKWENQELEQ
The assay is described as follows: two-hybrid library CCNG1.

The target of the next assay is T40, O8-bN.
T40 chain: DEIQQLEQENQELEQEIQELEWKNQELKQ
The assay is described as follows: two-hybrid library CCNG1.

The target of a further assay is T41, O9-bN.
T41 chain: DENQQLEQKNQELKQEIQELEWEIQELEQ
Kind of assay: two-hybrid library CCNG1.

The target in another assay is T42, O3-bP.
T42 chain: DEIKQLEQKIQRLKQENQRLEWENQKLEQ
The assay is described as follows: two-hybrid library CCNG1.

A further assay deals with T43, O4-bP.
T43 chain: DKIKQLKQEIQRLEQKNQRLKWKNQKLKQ
Kind of assay: two-hybrid library CCNG1.

For a further assay, the target named is T44, O5-bP.
T44 chain: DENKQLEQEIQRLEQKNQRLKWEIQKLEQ
Kind of assay: two-hybrid library CCNG1.

In the next assay the target is T45, O6-bP.
T45 chain: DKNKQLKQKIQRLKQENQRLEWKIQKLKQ
The assay is described as follows: two-hybrid library CCNG1.

The target in another assay is T46, O7-bP.
T46 chain: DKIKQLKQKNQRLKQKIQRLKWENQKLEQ
The assay is described as follows: two-hybrid library CCNG1.

Another assay addresses T47, O8-bP.
T47 chain: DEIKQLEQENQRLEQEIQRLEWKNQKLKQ
Kind of assay: two-hybrid library CCNG1.

Another assay has as its target T48, O9-bP.
T48 chain: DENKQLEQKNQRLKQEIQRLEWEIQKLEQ
Kind of assay: two-hybrid library CCNG1.

B1: 4H3365-AA (peptide)
chain: DKNAALEAKIAALEAKIAALEAKIAALEG
For the molecule B1, the interaction score is 1.76 with 4H3365-AA; -0.823 with 4H355-AA; -0.441 in the assay with 4H3651-AA; -1.25 in the assay with 4H3705-AA; -1.46 with 4H3782-AA; -1.05 in the assay with 4H465-AA. Also, the interaction score is -1.2 in the assay with 4H486-AA; -1.33 with 4H535-AA; -1.67 with 4H58-AA; -1.35 with 4H895-AA; -1.21 with 4H_APH; -1.47 in the assay with 4H_BCR. Also, the interaction score with 4H_GCN4 was -1.72; with GCN2_T it was -1.79; with P3-AA it was -2.3.

B2: P8bH1 (peptide)
chain: DKIKQLKKENEELERKIWELKKENEQLEQ
For the molecule B2, the interaction score with P8bH1 was -0.114; with P9bH1, -0.01.

B3: 4H3462-bH (peptide)
chain: DKNQELEKKNEELEREIWELEKKIQELKR
Turning to B3, the interaction score with 4H3462-bH is 0.634; with 4H3497-bH, 1.43; with 4H3613-bH, -0.585; in the assay with 4H3628-bH, 0.726; with 4H3926-bH it was 0.869; in the assay with 4H591-bH it was -0.285. Moreover, the interaction score is -0.748 with 4H626-bH, 0.0503 in the assay with 4H906-bH and 1.13 with O2-bN.

B4: P7bH1 (peptide)
chain: DEIKQLEKKNEELKREIWELEKKNEQLKQ
In the case of B4, the values for the interaction score with P7bH1, with P8bH1 and with P9bH1 were -0.0541, 1.89 and -0.3, respectively.

B5: 4H570-bN (peptide)
chain: DEIQQLKQEIQELEQKNQELKWEIQELKQ
With B5, the interaction score in the assay with 4H570-bN was 0.618; with 4H584-bN it was 0.131; with 4H619-bN it was -1.3; in the assay with 4H850-bN it was 1.82; with 4H906-bN, -1.16; with P7A it was -1.87.

B6: 4H3020-AA (peptide)
chain: DKIAALKAKNAALKAEIAALKAENAALKG
Turning to B6, the interaction score with 4H3020-AA was 0.962; in the assay with 4H3365-AA (mean of both orientations) it was -1.49; with 4H355-AA, -1.86; with 4H3651-AA, -1.36; in the assay with 4H3705-AA, -1.78; in the assay with 4H3782-AA, -1.57. Also, the interaction score was -1.7 with 4H465-AA; -1.33 with 4H486-AA; -1.47 in the assay with 4H535-AA; -0.528 in the assay with 4H58-AA; -1.5 in the assay with 4H895-AA; -2.43 with 4H_APH. Further, the interaction score was -1.87 with 4H_BCR, -0.937 with 4H_GCN4 (mean of both orientations) and -0.848 in the assay with GCN2_T.

B7: P7A (peptide)
chain: DEIQALEEKNAQLKQEIAALEEKNQALKY
As to B7, the interaction score with P7A was -0.598; with P8A, 2.24; in the assay with P9A it was -0.697.

B8: P6bH1 (peptide)
chain: DKNKQLKKEIEELERENWELEKKIEQLKQ
As to B8, the interaction score in the assay with P6bH1 is -0.419; in the assay with P7bH1 it was 1.39; with P8bH1 it was 0.525; with P9bH1, 0.0468.

B9: O4-bN (peptide)
chain: DKIQQLKQEIQELEQKNQELKWKNQELKQ
Consider B9, for which the interaction score in the assay with O4-bN was -0.666; in the assay with O5-bN, -0.492; with O6-bN it was 0.639; with O7-bN, -0.226; with O8-bN it was -0.553; with O9-bN, -0.542.

B10: O3-bP (peptide)
chain: DEIKQLEQKIQRLKQENQRLEWENQKLEQ
B10: the interaction score in the assay with O3-bP was -0.797; with O4-bP, 1.15; with O5-bP, -1.53; in the assay with O6-bP it was -0.828; with O7-bP, -1.61; with O8-bP, -0.905. The molecule also came in with an interaction score with O9-bP of -1.8.
